The text below walks through data of patent US10370438B2, “Histamine-releasing factor (HRF), HRF-receptor and methods of modulating inflammation” (LA JOLLA INSTITUTE FOR ALLERGY AND IMMUNOLOGY, priority 2010, dated 2019).

One experiment deals with C57BL/6 mice. The experiment can be described thus: OVA-induced mast cell-dependent airway inflammation model. Conditions: intranasal pretreatment before each OVA challenge. Format: in vivo, mouse. How it is done:
Mice were sensitized with OVA (10 μg in 0.1 ml saline) at days 0, 7, 14, 21, 28, and 35. Sensitized mice were challenged with OVA (20 μg in 20 μl saline) at days 40, 43 and 46. Some mice were pretreated with GST, GST-N19 (400 μg in PBS), or N19 peptide (40 μg in 2% DMSO-containing PBS) 15 minutes before OVA challenge. Twenty-four hours after the last challenge, lung function in response to methacholine was tested using FlexiVent system (SCIREQ Scientific Respiratory Equipment). Mice were sacrificed and plasma, BAL fluids, and lung tissues were collected. Cells in BAL fluids were counted, and specific cell numbers were calculated after May-Giemsa staining of Cytospin preparations. Immunofluorescence microscopy was performed on membrane-permeabilized and non-permeabilized lung tissues. For staining of lung tissues by staining of H&E and periodic acid-Schiff (PAS), lung tissues were fixed with formalin and embedded in paraffin. For measurement of cytokine levels in lung tissues, lung homogenates were prepared (Oyoshi et al., Immunol. 120:303 (2007)) and cytokines quantified by ELISA. HRF in lung homogenates and plasma was SDS-PAGE and immunoblotting with anti-HRF Ab (Santa Cruz Biotechnology).
Asthma is a type 2 helper T cell-driven, chronic inflammatory lung disease (Wills-Karp, Annu Rev Immunol 17, 255 (1999)). To study HRF involvement in allergic airway inflammation, an airway inflammation model was utilized, in which mast cells are implicated in amplifying antigen-dependent chronic inflammation (Williams, et al., J Exp Med 192, 455 (Aug. 7, 2000)). C57BL/6 mice were first sensitized with OVA (10 μg) at days 0, 7, 14, 21, 28 and 35. At days 40, 43 and 46, mice were intranasally challenged with OVA (20 μg) or PBS. Some mice were intranasally pretreated with GST or GST-N19 (400 μg) before every OVA challenge. Twenty-four hours after the last challenge, mice were sacrificed and BAL fluids and lung tissues were collected. Lung tissues were homogenized.

In the next experiment the test system is HRF/IgE binding. The experiment can be described thus: Competition ELISA of IgE binding to GST-mHRF-coated wells. Details: species or system mouse. The note with it: competitor incubated 2 hours. How it is done: To identify an inhibitor of HRF/Ig interactions to dissect the extracellular function (═HRF function as a cytokine) separate from the intracellular functions in vivo settings, the major Ig-interacting HRF sequence was studied as a specific inhibitor of HRF/Ig interactions. IgE molecules were incubated in GST-mHRF-coated wells in the presence or absence (−) of the indicated concentrations of competitors, GST-N19, GST-mHRF or mHRF-His6 for 2 hours. After incubation, bound-IgE was detected by incubation with biotinylated anti-mouse IgE mAb, followed by streptavidin-HRP. […] By contrast, none of the shorter mHRF peptides tested (residues 1-6, 1-12, 5-19, and 9-19) inhibited HRF/IgE binding. GST-N19 inhibited HRF/IgG binding as well.
In general terms: An ELISA detects its analyte on a solid surface through an enzyme-linked reagent.

The test system of a further experiment is IgE-sensitized mice. The experiment in a line: Passive cutaneous anaphylaxis induced by mHRF in IgE-sensitized ears. It is filed as in vivo, mouse. The note with it: 8 hours after injection in IgE-sensitized ears. On the procedure: Mouse ears were first sensitized with 0.5 μg anti-TNP (C38-2 in the right ear and C48-2 in the left ear) IgE. After 24 hours, Evans' blue dye was intravenously (i.v.) injected, and TNP26-BSA (Ag: 0.1 μg) or mHRF-His6 (10 μg) were immediately injected into the ears. The acute (30 minute) reactions were analyzed by measurement of Evans' blue dye leakage. The ear thickness was measured using a micrometer (Mitutoyo) at 0.5, 1, 2, 4, 6, 8, 12, and 24 hours after mHRF-His6challenge. As a negative control, saline was injected into the ears in place of antigen or HRF challenge. IgG-mediated response was performed by sensitization with 2 μg IgG1 (in place of anti-TNP IgE) and challenge with anti-mouse IgG1 Ab (0.6 μg: Southern Biotechnology, in place of TNP26-BSA). Engraftmanet of Kit^W-sh/W-sh mice with BMMCs was performed 6 weeks before study (Nakano, T., et al. J Exp Med 162:1025-1043 (1985)). In some studies, mice were sensitized and stimulated as described above but without Evans blue.
Here, mice were sensitized with the IgE. […] After 30 minutes, mice were sacrificed, and the amount of Evans blue dye leaked from the ears measured. […]
mHRF-His6 (H) was injected in IgE-sensitized ears and LPR was analyzed by measurement of ear thickness at 8 hours after injection. […]
IGELa2 IgE was intradermally injected into ears. […] Eight hours after injection, the ear thickness was measured (FIG. 7).

Another experiment deals with peritoneal mast cells. The experiment can be described thus: β-hexosaminidase release (degranulation). Format: cell-based, mouse. The note with it: cells sensitized with HRF-reactive IgE, 40 minutes. On the procedure: Mast cells were sensitized with 0.5 μg/ml IgE overnight. The mast cells were stimulated with TNP26-BSA or mHRF-His6 for 40 minutes in Tyrode's buffer. The amount of β-hexosaminidase (β-hex) in both supernatants and cell pellets was measured. The percentage of β-hex release was calculated as follows: % release=β-hex in supernatants/β-hex in supernatants+β-hex in cell pellets)
These hypersensitivity reactions appear to be dependent on mast cells, as the reactions were abolished in mast cell-deficient Kit^W-sh/W-sh mice and restored in Kit^W-sh/W-sh mice engrafted with WT BMMCs (FIG. 6A). […] Therefore, HRF and HRF-reactive IgE can induce anaphylactic responses in a mast cell- and FcεRI-dependent manner. Consistent with this, peritoneal mast cells sensitized with the HRF-reactive, but not the HRF-nonreactive, IgE were activated upon stimulation with HRF (FIG. 6D). After 40 minutes, both supernatants and cell pellets were collected and β-hexosaminidase release was analyzed (FIG. 6D).

For a further experiment, the system named is Unimmunized mice. The experiment in a line: Intranasal HRF in naïve mice, BAL differential cell counting. Format: in vivo, mouse. The note with it: for Lung inflammation: naïve C57BL/6 (WT) mice, 40 μg intranasally three times. How it is done: In light of the presence of HRF-reactive IgG in naïve mice and recent studies reporting the role of mast cells in the initiation of adaptive immune responses (Galli, et al., Nat Immunol 6, 135 (February, 2005)), the effect of HRF on naïve mice was assessed. Unimmunized C57BL/6 (WT), μMT, and FcRγ^−/− mice (n=5 per cohort) were treated intranasally with 40 μg mHRF-His6 three times every third day. PBS served as a negative control. BAL procedures were conducted 24 hours after the last HRF administration. Differential cell counting was performed on cytospin preparations stained with May-Giemsa. […] FcRγ is shared by multiple Fc receptors including FcεRI.

The test system of the next experiment is IgE. The experiment in a line: ELISA with monomeric and dimeric HRF-His6 as capturing agent. It is filed as binding, mouse. How it is done: Monomeric and dimeric HRF-His6 proteins purified by HPLC were coated onto plastic wells. After blocking, 206 (HRF-nonreactive) and IGELa2 (HRFreactive) IgEs were incubated. Bound IgEs were detected by incubation with biotin-conjugated anti-mouse IgE antibody, followed by incubation with horseradish peroxidase-conjugated streptavidin. The absorbance at 450 nm was measured after development of the color. […] The dimerizing ability of HRF with multiple Ig-binding sites strongly indicates the potential of HRF to crosslink Ig-bound Fc receptors.

With “N19 peptide: synthetic non-fusion N19 peptide, N-terminal 19 residue peptide of HRF (MIIYRDLISHDELFSDIYK; UniProt P63028 1-19, looked up, fragment)”, the Airway inflammation result in the experiment on C57BL/6 mice is listed as “abrogated”.

Consider “residues 1-6: shorter mHRF peptide, residues 1-6 (MIIYRD; UniProt P63028 1-6, looked up, fragment)”, for which the “Inhibition of IgE binding to immobilized GST-mHRF” value (“Inhibition of IgE binding” for short) in the experiment on HRF/IgE binding is reported as “none”.

With “residues 1-12: shorter mHRF peptide, residues 1-12 (MIIYRDLISHDE; UniProt P63028 1-12, looked up, fragment)”, in the experiment with HRF/IgE binding, the “Inhibition of IgE binding” value is given as “none”.

Consider “residues 5-19: shorter mHRF peptide, residues 5-19 (RDLISHDELFSDIYK; UniProt P63028 5-19, looked up, fragment)”, for which the “Inhibition of IgE binding” value with HRF/IgE binding is recorded as “none”.

Consider “residues 9-19: shorter mHRF peptide, residues 9-19 (SHDELFSDIYK; UniProt P63028 9-19, looked up, fragment)”, for which the “Inhibition of IgE binding” value in the experiment on HRF/IgE binding is “none”.

B1: mHRF-His6: C-terminally hexahistidine-tagged recombinant mouse histamine releasing factor (protein)
chain: MIIYRDLISHDELFSDIYKIREIADGLCLEVEGKMVSRTEGAIDDSLIGGNASAEGPEGEGTESTVVTGVDIVMNHHLQETSFTKEAYKKYIKDYMKSLKGKLEEQKPERVKPFMTGAAEQIKHILANFNNYQFFIGENMNPDGMVALLDYREDGVTPFMIFFKDGLEMEKCHHHHHH
For B1, in the experiment on IgE-sensitized mice, the “Late-phase reaction (LPR), ear swelling” value is given as “as high as that induced by antigen”. The “Mast cell activation (β-hexosaminidase release)” value in the experiment on peritoneal mast cells is recorded as “activated”. Moreover, the “HRF effects (lung inflammation)” value with Unimmunized mice (B cell-deficient (μMT) or FcRγ−/− mice) was “not observed”. Moreover, the values for the Lung inflammation entry in the experiment with Unimmunized mice and with Unimmunized mice (listed as HRF) were “induced weak lung inflammation” and “weak lung inflammation is induced”, respectively. The HRF-induced lung inflammation entry in the experiment on Unimmunized mice (naïve FcεRIα−/− mice) was “abrogated or reduced”. Besides, the “Neutrophils and eosinophils in BAL fluids” value in the experiment on Unimmunized mice (naïve WT mice) is listed as “increased”. Also, the “Binding to IgE” value in the experiment with IgE (dimeric form as capturing agent) and with IgE (monomeric form as capturing agent) was “can bind” in each case.
